Experimental data reported in the RNAGym collection of RNA variant scans (doi:10.1093/nar/gkz1192).

B1: CPEB3 Ribozyme (parent)
chain: UAACAGGGGGCCACAGCAGAAGCGUUCACGUCGCAGCCCCUGUCAGAUUCUGGUGAAUCUGCGAAUUCUGCUGUAUAUCUC

Variants of: B1
Experiment: self-cleavage, relative activity (ratio to wild type); higher = more cleavage; in vitro, sequencing
Outline: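 After error-prone PCR and barcoding, CPEB3 ribozyme mutant libraries were transcribed with T7 RNA polymerase at 37°C for 5 hours, then given 15 min with DNase I before an EDTA stop, and they cleaved during both steps. Reverse transcription with template switching preceded Illumina sequencing. Relative activity divides a variant's cleaved/total read fraction by the unmutated ribozyme's. At least 5 reads were required per variant, and three batches were averaged.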

Row | Variant | self-cleavage
1 | UAACAGGGGGCCACAGCAGAAGCGUUCACGCCGCAGCCCCUGUCAGAUUCUGGUGAAUCUGCGAAUUCUGCUGUAUAUCUC [U31C] | 0.87
2 | UAACAGGGGGCCACAGCAGAAGCGUUCACGACGCAGCCCCUGUCAGAUUCUGGUGAAUCUGCGAAUCCUGCUGUAUAUCUC [U31A U67C] | 0.2
3 | UAACAGGGGGCCACAGCAGAAGCGUUCACGACGCAGCCCCUGUCAGAUUCUGGUGAAUCUGCGAAUACUGCUGUAUAUCUC [U31A U67A] | 0.34
4 | UAACAGGGGGCCACAGCAGAAGCGUUCACGACUCAGCCCCUGUCAGAUUCUGGUGAAUCUGCGAAUUCUGCUGUAUAUCUC [U31A G33U] | 0.13
5 | UAACAGGGGGCCACAGCAGAAGCGUUCACGACACAGCCCCUGUCAGAUUCUGGUGAAUCUGCGAAUUCUGCUGUAUAUCUC [U31A G33A] | 0.24
6 | UAACAGGGGGCCACAGCAGAAGCGUUCACGACGCAGCCCCUGUCAGAAUCUGGUGAAUCUGCGAAUUCUGCUGUAUAUCUC [U31A U48A] | 0.13
7 | UAACAGGGGGCCACAGCAGAAGCGUUCACGACGCAGCCCCUGUCAGAGUCUGGUGAAUCUGCGAAUUCUGCUGUAUAUCUC [U31A U48G] | 0.16
8 | UAACAGGGGGCCACAGCAGAAGCGUUCACGACGCAGCCCCUGUCAGACUCUGGUGAAUCUGCGAAUUCUGCUGUAUAUCUC [U31A U48C] | 0.29
9 | UAACAGGGGGCCACAGCAGAAGCGUUCACGACGCAGCCCCUGUCAGAUUCUGGUGAAUCUGCGAAUUCUGCUGAAUAUCUC [U31A U74A] | 0.74
10 | UAACAGGGGGCCACAGCAGAAGCGUUCACGACGCAGCCCCUGUCAGAUUCUGGUGAAUCUGCGAAUUCUGCUGCAUAUCUC [U31A U74C] | 0.77
11 | UAACAGGGGGCCACAGCAGAAGCGUUCACGACGCAGCCCCUGUCAGAUUCUGGUGAAUCUGCGAAUUCUGCUGGAUAUCUC [U31A U74G] | 0.84
12 | UAACAGGGGGCCACAGCAGAAGCGUUCACGACGCAGCCCCUGUCAGAUUCUGGUGAAUCUCCGAAUUCUGCUGUAUAUCUC [U31A G61C] | 0.24
13 | UAACAGGGGGCCACAGCAGAAGCGUUCACGACGCAGCCCCUGUCAGAUUCUGGUGAAUCUACGAAUUCUGCUGUAUAUCUC [U31A G61A] | 0.37
14 | UAACAGGGGGCCACAGCAGAAGCGUUCACGACGCAGCCCCUGUCAGAUCCUGGUGAAUCUGCGAAUUCUGCUGUAUAUCUC [U31A U49C] | 0.22
15 | UAACAGGGGGCCACAGCAGAAGCGUUCACGACGCAGCCCCUGUCAGAUACUGGUGAAUCUGCGAAUUCUGCUGUAUAUCUC [U31A U49A] | 0.41
16 | UAACAGGGGGCCACAGCAGAAGCGUUCACGACGCAGCCCCUGCCAGAUUCUGGUGAAUCUGCGAAUUCUGCUGUAUAUCUC [U31A U43C] | 0.37
17 | UAACAGGGGGCCACAGCAGAAGCGUUCACGACGCAGCCCCUGGCAGAUUCUGGUGAAUCUGCGAAUUCUGCUGUAUAUCUC [U31A U43G] | 0.33

Row | Variant | self-cleavage
18 | UAACAGGGGGCCACAGCAGAAGCGUUCACGACGCAGCCCCUGACAGAUUCUGGUGAAUCUGCGAAUUCUGCUGUAUAUCUC [U31A U43A] | 0.7
19 | UAACAGGGGGCCACAGCAGAAGCGUUCACGACGCAUCCCCUGUCAGAUUCUGGUGAAUCUGCGAAUUCUGCUGUAUAUCUC [U31A G36U] | 0.1
20 | UAACAGGGGGCCACAGCAGAAGCGUUCACGACGCAGCCCCUGUCAGAUUCUGGCGAAUCUGCGAAUUCUGCUGUAUAUCUC [U31A U54C] | 0.5
21 | UAACAGGGGGCCACAGCAGAAGCGUUCACGACGCAGCCCCUGUCAGAUUCUGGGGAAUCUGCGAAUUCUGCUGUAUAUCUC [U31A U54G] | 0.55
22 | UAACAGGGGGCCACAGCAGAAGCGUUCACGACGCAGCCCCUGUCAGAUUCUGGAGAAUCUGCGAAUUCUGCUGUAUAUCUC [U31A U54A] | 0.55
23 | UAACAGGGGGCCACAGCAGAAGCGUUCACGCCGCAGCCCCUGUCCGAUUCUGGUGAAUCUGCGAAUUCUGCUGUAUAUCUC [U31C A45C] | 0.22
24 | UAACAGGGGGCCACAGCAGAAGCGUUCACGCCGCAGCCCCUGUCGGAUUCUGGUGAAUCUGCGAAUUCUGCUGUAUAUCUC [U31C A45G] | 0.52
25 | UAACAGGGGGCCACAGCAGAAGCGUUCACGCCGCAGCCCCUGUCUGAUUCUGGUGAAUCUGCGAAUUCUGCUGUAUAUCUC [U31C A45U] | 0.32
26 | UAACAGGGGGCCACAGCAGAAGCGUUCACGACGCAGCCCCUGUCAGAUUCUGGUGAAUCUGCGAAUUCUGCUGUAUAUCGC [U31A U80G] | 0.55
27 | UAACAGGGGGCCACAGCAGAAGCGUUCACGACGCAGCCCCUGUCAGAUUCUGGUGAAUCUGCGAAUUCUGCUGUAUAUCAC [U31A U80A] | 0.61
28 | UAACAGGGGGCCACAGCAGAAGCGUUCACGACGCAGCCCCUGUCAGAUUCUGGUGAAUCUGCGAAUUCUGCUGUAUAUCCC [U31A U80C] | 0.66
29 | UAACAGGGGGCCACAGCAGAAGCGUUCACGACGCAGCCCCUGUCAGAUUCCGGUGAAUCUGCGAAUUCUGCUGUAUAUCUC [U31A U51C] | 0.46
30 | UAACAGGGGGCCACAGCAGAAGCGUUCACGACGCAGCCCCUGUCAGAUUCAGGUGAAUCUGCGAAUUCUGCUGUAUAUCUC [U31A U51A] | 0.59
31 | UAACAGGGGGCCACAGCAGAAGCGUUCACGACGCAGCCCCUGUCAGAUUCGGGUGAAUCUGCGAAUUCUGCUGUAUAUCUC [U31A U51G] | 0.33
32 | UAACAGGGGGCCACAGCAGAAGCGUUCACGACGCAGCCCCUGUCAUAUUCUGGUGAAUCUGCGAAUUCUGCUGUAUAUCUC [U31A G46U] | 0.12
33 | UAACAGGGGGCCACAGCAGAAGCGUUCACGACGCAGCCCCUGUCACAUUCUGGUGAAUCUGCGAAUUCUGCUGUAUAUCUC [U31A G46C] | 0.2
34 | UAACAGGGGGCCACAGCAGAAGCGUUCACGACGCAGCCCCUGUCAGAUUCUGGUAAAUCUGCGAAUUCUGCUGUAUAUCUC [U31A G55A] | 0.41
